Experimental data taken from patent US10398755B2, “Clusterin pharmaceuticals and treatment methods using the same” (UNIVERSITY OF SOUTHERN CALIFORNIA, priority 2009, dated 2019).

Legend:
[1] = target: T1, catalytic domain of human MMP-9 (residue 112-445) (Homo sapiens, UniProt P14780); assay: MMP inhibition assay (FRET peptide substrate), recombinant MMP-9 catalytic domain; format: biochemical; details: CLU 50 μg/ml (0.63 μM), RT 0.3 h
T1 construct: The recombinant catalytic domain of human MMP-9 (residue 112-445) was purchased from ProtEra; purchased ProtEra
Procedure: Recombinant MMP-9 catalytic domain (A) or APMA-activated MMP-7 (B) was incubated with PBS, CLU (50 μg/ml or 0.63 μM), SB3-CT (2 μM), or BSA (50 μg/ml), and MMP FRET substrate at RT for 0.3 h. RFU in PBS samples was considered 100%. Each reaction was performed in triplicate. Standard errors were depicted as a bar in each graph. MMPs were mixed with CLD in TSCB buffer, 50 mM Tris-HCI, pH, 7.5, 150 mM NaCl, 5 mM CaCl2, 0.002% Brij35 (or otherwise indicated concentration) 30 min prior to substrate addition, and incubated for 3 h at RT in the presence or absence of 0.02 mM p-aminophenylmercuric acetate (APMA). MMP activity was measured using a 5-FAM/QXL520 fluorescence resonance energy transfer (FRET) peptide as a substrate (EXlEm=490 nm/520 nm) (AnaSpec, Fremont, Calif.), according to the manufacturer's protocol. Relative fluorescence unit (RFU) was obtained by subtracting the values of APMA- or enzyme-omitted reactions from those of test samples, and then considering the fluorescence unit of a PBS (vehicle) sample as 100%. Enzyme reactions were performed in black 96-well plate, containing combinations of 10 ng, 5 ng, 5 ng, 10 ng, 2.5 μg, 2.5 μg of MMP-2, MMP-7, catalytic domain of MMP-9, MMP-9, CCLU, and/or BSA, respectively, in 50 μl reaction volume. As MMP substrates (0.4 μM), 520 MMP FRET substrate […] […] Fluorescence was monitored using a Victor^3TM V multilabel counter (PerkinElmer). […]

[2] = target: T2, HA-tagged MMP-9 (Mus musculus, UniProt P41245); assay: Immunoprecipitation assay in co-transfected HEK293 cells; format: cell-based
T2 construct: carrying the mouse full length cDNA of Myc-tagged CLU (CLU) or HA-tagged MMP-9 (MMP-9) were transfected; expressed in transfected cells; host or cells: HEK293
Procedure: (A) pcDNA 3.1 (+) expression vectors carrying the mouse full length cDNA of Myc-tagged CLU (CLU) or HA-tagged MMP-9 (MMP-9) were transfected, alone (CLU or MMP-9) or combined (CLU+MMP-9), into HEK293 cells. Using the whole cell lysates of the transfected cells, immunoprecipitation (IP) with anti-HA antibody was performed to pull down MMP-9, and then the eluted samples were subjected to immunoblotting (denaturing 4-15% gradient SDS/PAGE gel) (IB) using anti-Myc antibody to detect CLU. The bands indicated by arrows are consistent to the forms of CLU undergoing intracellular processing. in, whole cell lysate used as input; IP, immunoprecipitated sample; Unc, Uncleaved CLU protein; β, β subunit of CLU. (B) Confocal microscopy of MMP-9 and CLU in HCLE cells. Nuclei were stained with DAPI, MMP-9 was detected by rhodamine-conjuated antibody, and CLU by FITC-conjugated antibody. In control, primary antibodies were omitted. The images were taken at 400× magnification. […]
Next, we tested whether MMP-9/CLU interaction also occurs in vivo. […] We also recognized that a stronger band of ˜50 KDa, compared with the other two IP lanes, was detected in co-transfected IP lane, which might be a non-glycosylated full-length form of CLU. […]

T1 sequence (P14780 112-445): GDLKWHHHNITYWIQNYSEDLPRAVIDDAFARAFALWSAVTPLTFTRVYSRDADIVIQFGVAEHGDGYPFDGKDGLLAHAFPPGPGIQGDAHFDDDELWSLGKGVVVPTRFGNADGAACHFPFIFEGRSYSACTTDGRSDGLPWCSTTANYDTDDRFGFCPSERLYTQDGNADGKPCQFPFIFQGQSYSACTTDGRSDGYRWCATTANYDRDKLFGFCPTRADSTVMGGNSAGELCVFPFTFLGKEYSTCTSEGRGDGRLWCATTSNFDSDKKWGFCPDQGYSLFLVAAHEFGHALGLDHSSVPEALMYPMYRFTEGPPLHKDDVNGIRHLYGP
T2 sequence (P41245 108-730): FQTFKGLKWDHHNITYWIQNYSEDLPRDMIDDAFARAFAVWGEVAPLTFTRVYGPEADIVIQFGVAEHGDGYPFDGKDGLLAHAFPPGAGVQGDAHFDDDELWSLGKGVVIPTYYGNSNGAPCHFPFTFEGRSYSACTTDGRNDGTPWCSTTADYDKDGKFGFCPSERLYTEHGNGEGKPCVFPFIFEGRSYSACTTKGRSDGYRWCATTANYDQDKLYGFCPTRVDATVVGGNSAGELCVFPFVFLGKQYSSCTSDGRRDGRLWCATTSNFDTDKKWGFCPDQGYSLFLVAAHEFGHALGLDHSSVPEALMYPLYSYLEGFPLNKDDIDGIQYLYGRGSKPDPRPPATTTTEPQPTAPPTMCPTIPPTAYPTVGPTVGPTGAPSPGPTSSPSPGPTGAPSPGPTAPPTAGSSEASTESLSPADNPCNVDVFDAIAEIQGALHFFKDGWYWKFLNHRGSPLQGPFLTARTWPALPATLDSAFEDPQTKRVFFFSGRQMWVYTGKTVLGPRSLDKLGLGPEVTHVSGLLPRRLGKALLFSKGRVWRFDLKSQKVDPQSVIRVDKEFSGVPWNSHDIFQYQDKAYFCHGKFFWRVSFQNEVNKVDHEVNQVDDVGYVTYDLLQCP

B1: CLU: secreted disulfide-linked heterodimeric glycoprotein (70-80 KD); assays used recombinant mouse CLU with C-terminal (His)6 (protein, UniProt Q06890 22-448, looked up)
Clusterin: EQEVSDNELQELSTQGSRYINKEIQNAVQGVKHIKTLIEKTNAERKSLLNSLEEAKKKKEDALEDTRDSEMKLKAFPEVCNETMMALWEECKPCLKHTCMKFYARVCRSGSGLVGQQLEEFLNQSSPFYFWMNGDRIDSLLESDRQQSQVLDAMQDSFARASGIIDTLFQDRFFARELHDPHYFSPIGFPHKRPHFLYPKSRLVRSLMSPSHYGPPSFHNMFQPFFEMIHQAQQAMDVQLHSPAFQFPDVDFLREGEDDRTVCKEIRRNSTGCLKMKGQCEKCQEILSVDCSTNNPAQANLRQELNDSLQVAERLTEQYKELLQSFQSKMLNTSSLLEQLNDQFNWVSQLANLTQGEDKYYLRVSTVTTHSSDSEVPSRVTEVVVKLFDSDPITVVLPEEVSKDNPKFMDTVAEKALQEYRRKSRAE
modifications: C-terminal His6 tag
[1]
  inhibition of MMP-9 catalytic domain activity: 59%
[2]
  co-immunoprecipitation of Myc-tagged CLU with HA-tagged MMP-9: interact in vivo even before processing of the proteins
